Data published in PMC3915751.

Tested on: T1, BaeR (Erwinia amylovora Ea1189 (primers from CFBP1430 genome)), ORF:3df56c72
T1 sequence: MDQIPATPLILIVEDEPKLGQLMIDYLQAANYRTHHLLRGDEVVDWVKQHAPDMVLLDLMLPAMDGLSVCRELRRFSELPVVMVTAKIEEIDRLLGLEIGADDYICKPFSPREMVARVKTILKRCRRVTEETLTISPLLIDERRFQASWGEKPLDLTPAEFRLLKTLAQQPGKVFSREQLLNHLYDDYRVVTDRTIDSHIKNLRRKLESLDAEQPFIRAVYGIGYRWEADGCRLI
Experiment: EMSA
Settings: 50 mM Tris-HCl pH 7.5, 1 mM DTT, 500 mM MgCl2, 100 mM EDTA, 10 mM NaCl ([…], room temperature 30 min

Sequence | binding
TGTTTGGTATTTCGTGCCATAGCGGTATGATTTACAACGCTTCAGACTTACATACATTTGCGAATGTATGTACTATAGCACGACTAAAATTTAAACGCAGCAGTGGGTTTGTAATCCATTGAACAATCGATATCGGACATTCGAGGTTTATTTATGAACAAAAACAGAGGGTTAACGCCTCTGGCGGCCGTTCTGATGCTTTCAG (double strand) [acrAB upstream region (205 bp)] | binds more weakly
TGGCTGGCAACACTGAAGCCGCCCAGGCTCAGGCCGATGAGTAAAGGGAGCAGTTTGTTCATTTGCATTCCTTGTAGTGCAGCAAAATTGTTATGGTAGCGTTGACGCAGACCAAAAATTGTCGCCGATGATAGCAGAGACTCCGGATCAGGTAAGTTGGCTGAAAGTGCCATCCTCCTTTTAATTTACTTAAATACTTCATCAAGAACCAGACATCCGGCTGATTACTATTGAACTAAACGTTTTCGCCATTATTTCAGGAGATACAGTGATGACCGCAGTGACCAATTA (double strand) [tolC upstream region (291 bp)] | no binding
